Measurements taken from US20240018256A1 (JUNO THERAPEUTICS, published 2024).

How the values were obtained:
human CD19 [1] = target: T1, human CD19 (human, UniProt P15391 20-556); assay: flow cytometry on CD19-expressing cells (n = 2)
T1 sequence: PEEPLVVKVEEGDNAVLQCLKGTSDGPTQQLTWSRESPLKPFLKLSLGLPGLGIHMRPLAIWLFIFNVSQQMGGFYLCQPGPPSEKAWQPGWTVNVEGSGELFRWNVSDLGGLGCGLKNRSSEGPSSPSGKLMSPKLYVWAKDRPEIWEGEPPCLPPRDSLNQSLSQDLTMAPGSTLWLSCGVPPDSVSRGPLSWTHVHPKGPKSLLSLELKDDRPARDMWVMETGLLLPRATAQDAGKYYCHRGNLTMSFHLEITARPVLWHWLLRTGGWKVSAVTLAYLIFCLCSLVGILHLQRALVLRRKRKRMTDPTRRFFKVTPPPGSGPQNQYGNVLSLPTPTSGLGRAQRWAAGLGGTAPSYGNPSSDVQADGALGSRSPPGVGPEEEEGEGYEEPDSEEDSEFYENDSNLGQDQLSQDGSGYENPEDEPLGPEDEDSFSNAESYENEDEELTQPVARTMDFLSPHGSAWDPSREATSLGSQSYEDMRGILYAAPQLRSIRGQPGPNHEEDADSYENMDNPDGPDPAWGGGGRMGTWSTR

human CD19 [2] = target: T1, human CD19; assay: flow cytometry competition for binding with FMC63 (n = 3)

EC50 (human CD19 [1]): 5.2 nM
IC50 (human CD19 [2]): 14.6 nM
B1: Clone 241 scFv (scFv)
scFv: EVQLVQSGGGLVQPGRSLRLSCAASGFTFDDYAMHWVRQAPGKGLEWVSGISWNSGSIGYADSVKGRFTISRDNAKNSLYLQMNSLRAEDTAVYYCARDQGYHYYDSAEHAFDIWGQGTVVTVSSGGGGSGGGGSGGGGSAIRMTQSPSSLSASVGDRVTVTCQASQDISNYLNWYQQKPGRAPKLLIYDASNVKAGVPSRFSGGGSGTDFTLTISSLQPEDFATYYCQQSYSTPQAYTFGQGTKLDIK
notes: Human scFv
